Among the data in paper doi:10.1101/366336 are K half values, retold here.

Data set [1] addresses T1, hClp1 (human) (UniProt Q92989).
T1 sequence: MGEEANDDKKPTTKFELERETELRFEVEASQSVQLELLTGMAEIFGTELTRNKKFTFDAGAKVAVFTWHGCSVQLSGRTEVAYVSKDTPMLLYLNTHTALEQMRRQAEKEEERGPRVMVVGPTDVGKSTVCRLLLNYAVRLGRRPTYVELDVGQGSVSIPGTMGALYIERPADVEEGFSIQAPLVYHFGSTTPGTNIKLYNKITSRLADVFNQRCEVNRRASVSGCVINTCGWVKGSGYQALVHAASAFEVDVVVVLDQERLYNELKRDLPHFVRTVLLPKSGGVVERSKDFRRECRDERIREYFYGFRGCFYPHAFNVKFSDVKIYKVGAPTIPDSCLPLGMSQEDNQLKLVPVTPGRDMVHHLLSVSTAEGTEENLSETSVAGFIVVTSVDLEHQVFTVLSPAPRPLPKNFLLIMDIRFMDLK
As to the kind of experiment: filter binding. Particulars: cap analog.

Data set [2] concerns the target hPcf11 (in CF II);hClp1 (human;human) (UniProt O94913+Q92989). The data set is described as follows: filter binding. Particulars: cap analog.

hPcf11 (in CF II);hClp1 (human;human), sequence (O94913 whole entry, one chain of several): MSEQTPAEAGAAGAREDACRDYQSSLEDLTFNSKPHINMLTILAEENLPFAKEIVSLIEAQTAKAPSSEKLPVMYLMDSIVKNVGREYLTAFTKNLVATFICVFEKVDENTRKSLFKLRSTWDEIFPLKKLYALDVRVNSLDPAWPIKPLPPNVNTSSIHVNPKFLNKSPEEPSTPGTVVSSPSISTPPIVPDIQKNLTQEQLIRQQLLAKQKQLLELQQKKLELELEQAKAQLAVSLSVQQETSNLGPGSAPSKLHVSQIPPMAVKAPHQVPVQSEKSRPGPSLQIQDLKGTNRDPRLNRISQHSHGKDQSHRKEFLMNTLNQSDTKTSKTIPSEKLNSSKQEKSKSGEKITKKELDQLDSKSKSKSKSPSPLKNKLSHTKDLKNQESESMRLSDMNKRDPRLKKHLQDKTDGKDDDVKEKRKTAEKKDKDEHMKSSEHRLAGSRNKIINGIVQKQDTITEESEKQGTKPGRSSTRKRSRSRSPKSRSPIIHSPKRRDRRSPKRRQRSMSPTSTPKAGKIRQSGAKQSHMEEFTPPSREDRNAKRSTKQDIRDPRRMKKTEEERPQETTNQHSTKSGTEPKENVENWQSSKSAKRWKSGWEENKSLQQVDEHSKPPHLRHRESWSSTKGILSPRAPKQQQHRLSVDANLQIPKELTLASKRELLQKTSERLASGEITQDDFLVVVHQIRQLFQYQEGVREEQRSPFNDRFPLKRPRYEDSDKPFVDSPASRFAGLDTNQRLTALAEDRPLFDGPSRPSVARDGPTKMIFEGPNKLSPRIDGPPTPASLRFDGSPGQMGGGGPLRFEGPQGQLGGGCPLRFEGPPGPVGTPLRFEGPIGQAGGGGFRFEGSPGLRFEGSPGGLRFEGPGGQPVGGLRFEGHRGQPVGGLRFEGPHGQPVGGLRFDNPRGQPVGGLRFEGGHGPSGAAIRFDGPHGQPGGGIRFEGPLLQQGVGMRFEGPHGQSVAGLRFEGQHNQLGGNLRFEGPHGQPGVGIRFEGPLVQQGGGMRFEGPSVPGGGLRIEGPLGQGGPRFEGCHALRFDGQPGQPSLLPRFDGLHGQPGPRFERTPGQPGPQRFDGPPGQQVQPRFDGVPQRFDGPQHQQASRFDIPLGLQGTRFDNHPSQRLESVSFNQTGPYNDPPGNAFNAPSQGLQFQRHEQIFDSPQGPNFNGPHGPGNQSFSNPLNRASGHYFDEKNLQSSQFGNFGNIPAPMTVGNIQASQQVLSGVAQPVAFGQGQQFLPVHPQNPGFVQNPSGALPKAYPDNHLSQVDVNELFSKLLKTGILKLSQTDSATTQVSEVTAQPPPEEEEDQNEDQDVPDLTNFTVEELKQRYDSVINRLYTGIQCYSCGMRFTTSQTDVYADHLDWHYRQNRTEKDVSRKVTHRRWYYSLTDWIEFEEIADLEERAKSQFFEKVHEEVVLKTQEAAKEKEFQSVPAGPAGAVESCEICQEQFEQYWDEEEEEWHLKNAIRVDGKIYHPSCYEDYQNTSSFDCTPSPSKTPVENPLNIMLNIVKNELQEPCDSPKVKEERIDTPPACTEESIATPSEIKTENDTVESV

In the case of SV40 late RNA, the K half in data set [1] was 140 nM; in data set [2], 0.4 nM.
Consider L3 RNA, for which the K half in data set [2] came to 0.9 nM.
